Laboratory results as given in the supplement of paper PMC11865577.

Legend:
Assay in all cases: pull-down binding Z-score (relative to library population); higher = stronger binding
Details in all cases: RNA library: Library-2
[1] = system: TO-N3-2 (biotin conjugate)
Method in brief: (§1)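 Binding is given as a Z-score against the library mean and standard deviation, calculated after removing the beads-only signal and averaging barcoded replicate probes without their highest and lowest values. Cy5- or Cy3-end-labelled RNA library (1 μg) was heat-folded in phosphate/NaCl/KCl buffer and incubated 60 min at 25 °C with streptavidin beads bearing 100 pmol of biotin-conjugated small molecule. After three washes, RNA eluted in hot SDS was hybridised to a DNA barcode microarray for 20 h at 55.5 °C.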

[2] = system: TO-3-N3 (biotin conjugate)
Method in brief: as §1

[3] = system: TO-3-N3-2 (biotin conjugate)
Method in brief: as §1

TO-N3 (biotin conjugate) = system: TO-N3 (biotin conjugate)
Method in brief: as §1

Row | Sequence | pull-down binding Z-score [1] | pull-down binding Z-score [2] | pull-down binding Z-score [3] | pull-down binding Z-score (TO-N3 (biotin conjugate))
1 | GAUAACAACUUC [SHAPE_invitro_SARS-CoV-2_Motif_16] | -0.77 | 0.519 | 0.0515 | 0.252
2 | GAUCAGUUUCACCUAAACUGUUC | -1.08 | -1.06 | -0.626 | -1.46
3 | GAUCUAAAACCAGUC [DMSMaPseq_invitro_SARS-CoV-2_Motif_121] | -0.546 | -0.0402 | 0.0363 | -0.0985
4 | GAUCUCUUGUAGAUC | -0.498 | 0.682 | 0.0231 | 0.342
5 | GAUGAGUACGAACUUAUGUACUCAUU | -0.762 | -0.907 | -0.473 | -1.25
6 | GAUGCUGUUGUGUGUUUCAAUAGCACUUAUGCAUC | -0.931 | -0.907 | -0.542 | -0.937
7 | GAUGGCACUUGUGGCUUAGUAGAAGUUGAAAAAGGCGUUUUGCCUCAACUUGAACAGCCCUAUGUGUUCAUC | 0.432 | -0.665 | -0.0725 | -0.48
8 | GAUGGCUUUCCUUGAGGAAUCCCAUC [IAV_invivo_PB1_2_Motif_6+IAV_invivo_PB1_2_Motif_6] | -0.986 | -1.04 | -0.719 | -1.41
9 | GAUGGUCAAGUAGACUUAUUUAGAAAUGCCCGUAAUGGUGUUCUUAUUACAGAAGGUAGUGUUAAAGGUUUACAACCAUC | -0.181 | -0.346 | -0.245 | -0.421
10 | GAUGGUGGCUGUAUUAAUGCUAACCAAGUCAUCGUC | 1.4 | -0.273 | 0.129 | 0.31
11 | GAUGUAAUUAUCUUGGCAAACCACGCGAACAAAUAGAUGGUUAUGUC [DMSMaPseq_invitro_SARS-CoV-2_Motif_374] | -0.828 | -0.928 | -0.326 | -1.03
12 | GAUGUAGAAUUGUUUGAAAAUAAAACAACAUU | -0.444 | -0.783 | -0.136 | -0.878
13 | GAUGUUCUUGUUAACAACUAAACGAACAAUGUUUGUUUUUCUUGUUUUAUUGCCACUAGUCUCUAGUCAGUGUGUUAAUCUUACAACCAGAACUC [DMSMaPseq_invitro_SARS-CoV-2_Multi_63_ComplexLevel_1] | -0.457 | 0.637 | 0.256 | 0.534
14 | GAUUAUGUGUACCUUCCUUACCCAGAUCCAUCAAGAAUCCUAGGGGCCGGCUGUUUUGUAGAUGAUAUCGUAAAAACAGAUGGUACACUUAUGAUU [SHAPE_invitro_SARS-CoV-2_Multi_44_ComplexLevel_1] | 0.0805 | 0.359 | 0.262 | 0.661
15 | GAUUAUUACAGAUC [DMSMaPseq_invitro_SARS-CoV-2_Motif_169] | -1.16 | -0.377 | -0.191 | -0.695
16 | GAUUCAGAUCUUAAUGACUUUGUC [SHAPE_invivo_SARS-CoV-2_Motif_393] | -0.794 | -0.246 | -0.439 | -0.539
17 | GAUUUGGCUACUAACAAUC [SHAPE_invitro_SARS-CoV-2_Motif_40] | -0.0811 | 0.705 | 0.126 | 0.624
18 | GAUUUGUCUUCUACAAUUUGCCUAUGCCAACAGGAAUAGGUUUUUGUAUAUAAUUAAGUUAAUUUUCCUCUGGCUGUUAUGGCCAGUAACUUUAGCUUGUUU | -0.904 | -0.15 | -0.102 | -0.372

Row | Sequence | pull-down binding Z-score [1] | pull-down binding Z-score [2] | pull-down binding Z-score [3] | pull-down binding Z-score (TO-N3 (biotin conjugate))
19 | GAUUUUGGGACUACCAACUC | -0.581 | -0.579 | -0.384 | -0.683
20 | GCAAACAUACAACGUGUUGU [SHAPE_invitro_SARS-CoV-2_Motif_281] | -0.671 | -0.398 | -0.176 | -0.622
21 | GCAAAUUAAUGC | -1.25 | -0.689 | -0.864 | -1.04
22 | GCAAAUUGCACAAUUUGC | -0.158 | 0.165 | 0.661 | 0.0548
23 | GCAACUUGCUGUUGUUGUUUGUAACAGUUUACUCACACCUUUUGCUCGUUGC | -0.851 | -0.974 | -0.429 | -1.09
24 | GCAAGCUUCGAUAAUUUUAAGUUUGU [SHAPE_invitro_SARS-CoV-2_Motif_120] | -0.0709 | 1.04 | 0.402 | 0.816
25 | GCAAGUUGAAUCUGAUGAUUACAUAGCUACUAAUGGACCACUUAAAGUGGGUGGUAGUUGUGUUUUAAGCGGACACAAUCUUGC | -0.558 | -0.696 | -0.436 | -0.805
26 | GCACACUAGAACCAGAAUAUUUCAAUUCAGUGUGU | -1.18 | -0.957 | -0.413 | -1.2
27 | GCACAUAUAUCUACUAUUGGUGUUUGUUCUAUGACUGACAUAGCCAAGAAACCAACUGAAACGAUUUGUGC | 0.00798 | -0.793 | -0.32 | -0.457
28 | GCACCAUUAUUAUCAGCUGGUAUUUUUGGUGC | -1.18 | -0.619 | -0.502 | -0.921
29 | GCACCUCAUGGUGU | -0.856 | 0.707 | -0.649 | 0.66
30 | GCACGUAGUGUAGCUAGUCAAUCCAUCAUUGCCUACACUAUGUC | 0.486 | 0.288 | 0.0633 | 0.227
31 | GCACUACAGCUAAGGCUAUGGAGC [IAV_invivo_M1_M2_7_Motif_13+IAV_invivo_M1_M2_7_Motif_13] | 0.116 | -0.491 | -0.311 | -0.314
32 | GCACUAUUGCCUUUGGAGGCUGUGUGU [SHAPE_invivo_SARS-CoV-2_Motif_29] | -0.0377 | 0.554 | -0.236 | 0.415
33 | GCACUGACUUGCUUUAGCACUCAAUUUGCUUUUGCUUGUCCUGACGGCGUAAAACACGUCUAUCAGUUACGUGC | -0.056 | 0.239 | -0.234 | 0.281
34 | GCAGACGGGCGAUUUUGUUAAAGCCACUUGC | 1.57 | 0.648 | 0.604 | 0.889
35 | GCAGACUUCAAAGUUUGC | -1.04 | 0.23 | -0.0803 | -0.139
